Positions count from the first letter of the chain named.

What is called Kd is the concentration at which binding is half-saturated.

Common to all, as to assay: fluorescence anisotropy; Fluorescence anisotropy, 20 nM FAM-labelled DNA, topo VI 0 and 3.9-4000 nM, no nucleotide; buffer, salt, pH and temperature not given in supplied text
Background: In fluorescence polarisation assays a small probe gives low polarisation when free and higher when bound to something large.

The target of series [1] is T1, topo VI KGRR-AAA (Methanosarcina mazei, UniProt Q8PUB7;Q8PUB8 1-369;1-621, K186A;R188A;R189A).
T1 sequence 1: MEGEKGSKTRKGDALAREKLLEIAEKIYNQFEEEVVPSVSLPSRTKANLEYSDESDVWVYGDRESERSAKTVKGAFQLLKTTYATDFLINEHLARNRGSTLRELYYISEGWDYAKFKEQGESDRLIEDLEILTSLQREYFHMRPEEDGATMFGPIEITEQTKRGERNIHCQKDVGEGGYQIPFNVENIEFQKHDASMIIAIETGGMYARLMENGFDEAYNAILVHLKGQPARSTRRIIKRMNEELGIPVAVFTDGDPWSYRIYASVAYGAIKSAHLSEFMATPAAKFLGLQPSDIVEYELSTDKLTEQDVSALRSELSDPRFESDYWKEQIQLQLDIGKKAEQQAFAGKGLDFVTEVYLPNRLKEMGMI
T1 sequence 2: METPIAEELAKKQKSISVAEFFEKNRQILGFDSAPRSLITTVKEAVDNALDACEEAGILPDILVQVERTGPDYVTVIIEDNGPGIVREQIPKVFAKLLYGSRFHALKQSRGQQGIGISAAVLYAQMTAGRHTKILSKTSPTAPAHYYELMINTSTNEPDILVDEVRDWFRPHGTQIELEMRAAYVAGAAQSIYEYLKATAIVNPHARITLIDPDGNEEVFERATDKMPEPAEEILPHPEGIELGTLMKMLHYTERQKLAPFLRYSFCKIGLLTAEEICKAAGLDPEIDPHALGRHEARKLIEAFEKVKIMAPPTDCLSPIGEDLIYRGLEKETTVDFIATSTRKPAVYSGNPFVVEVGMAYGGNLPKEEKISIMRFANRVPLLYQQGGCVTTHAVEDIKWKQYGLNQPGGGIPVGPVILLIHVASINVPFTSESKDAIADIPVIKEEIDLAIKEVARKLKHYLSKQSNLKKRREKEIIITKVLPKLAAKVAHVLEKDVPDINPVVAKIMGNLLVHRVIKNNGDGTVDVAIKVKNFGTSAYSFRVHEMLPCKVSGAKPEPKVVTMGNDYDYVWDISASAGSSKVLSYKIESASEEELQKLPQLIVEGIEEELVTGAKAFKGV
Particulars: protein: recombinant; tags: N-terminal His6-TEV on Top6B, removed; chain copies: 2;2; label: 5'-FAM strand 1; blunt.

The target of series [2] is T2, topo VI H2TH-AAA (Methanosarcina mazei, UniProt Q8PUB7;Q8PUB8 1-369;1-621, R263A;K268A;K308A).
T2 sequence 1: T1 sequence 1
T2 sequence 2: T1 sequence 2 with A186K, A188R, A189R, R263A, K268A, K308A
The note with it: protein: recombinant, tags: N-terminal His6-TEV on Top6B, removed, chain copies: 2;2.

Series [3] addresses T3, topo VI holoenzyme WT (Methanosarcina mazei, UniProt Q8PUB7;Q8PUB8 1-369;1-621).
T3 sequence 1: T1 sequence 1
T3 sequence 2: T1 sequence 2 with A186K, A188R, A189R
The note with it: protein: recombinant, tags: N-terminal His6-TEV on Top6B, removed, chain copies: 2;2.

Setting [4] is: label: 5'-FAM strand 2, four-way Holliday junction, stacked-X, two GAAA-capped arms.

B1: 30 bp duplex (dsDNA)
DNA 1: CAAAAAGGAAGAGTATGAGTATTCAACATC
DNA 2: GATGTTGAATACTCATACTCTTCCTTTTTG
Regarding B1, the Kd is 65 ± 4 nM in series [1]; 94 ± 4 nM in series [2] (label: 5'-FAM strand 1, blunt); 84 ± 6 nM in series [3] (label: 5'-FAM strand 1, blunt).

B2: 70 bp duplex (dsDNA)
DNA 1: CCAAATGCTTCAATAATATTGAAAAAGGAAGAGTATGAGTATTCAACATTTCCGTGTCGCCCTTATTCCC
DNA 2: GGGAATAAGGGCGACACGGAAATGTTGAATACTCATACTCTTCCTTTTTCAATATTATTGAAGCATTTGG
On to B2, for which the Kd amounted to 124 ± 6 nM in series [1]; 180 ± 12 nM in series [2] (label: 5'-FAM strand 1, blunt); 62 ± 4 nM in series [3] (label: 5'-FAM strand 1, blunt).

B3: 20 bp duplex (dsDNA)
DNA 1: CGGAAGAGTATGAGTATTCG
DNA 2: CGAATACTCATACTCTTCCG
Consider B3, for which the dissociation constant Kd in series [1] turned out to be 338 ± 11 nM; in series [2] (label: 5'-FAM strand 1, blunt), 505 ± 22 nM; in series [3] (label: 5'-FAM strand 1, blunt), 427 ± 16 nM.

B4: 40 bp duplex (dsDNA)
DNA 1: CTATTGAAAAAGGAAGAGTATGAGTATTCAACATTTCCGC
DNA 2: GCGGAAATGTTGAATACTCATACTCTTCCTTTTTCAATAG
Take B4: the dissociation constant (Kd) was 67 ± 4 nM in series [1]; 58 ± 3 nM in series [2] (label: 5'-FAM strand 1, blunt); 49 ± 3 nM in series [3] (label: 5'-FAM strand 1, blunt).

B5: 16 x 20 bp stacked junction (structured_DNA)
DNA 1: CGAATACTCAGCTCAACCGAAAGGTTGAGCCTTCGCTCGAAAGAGCGAAGTACTCTTCCG
DNA 2: CGGAAGAGTATGAGTATTCG
Take B5: the Kd was 181 ± 8 nM in series [2] (setting [4]) and 122 ± 4 nM in series [3] (setting [4]).

B6: 60 bp duplex (dsDNA)
DNA 1: CGCTTCAATAATATTGAAAAAGGAAGAGTATGAGTATTCAACATTTCCGTGTCGCCCTTC
DNA 2: GAAGGGCGACACGGAAATGTTGAATACTCATACTCTTCCTTTTTCAATATTATTGAAGCG
Regarding B6, the Kd in series [1] was 99 ± 2 nM; in series [2] (label: 5'-FAM strand 1, blunt), 167 ± 9 nM; in series [3] (label: 5'-FAM strand 1, blunt), 38 ± 2 nM.

(Values after paper PMC5922973, “Topoisomerase VI senses and exploits both DNA crossings and bends to facilitate strand passage” (eLife, 2018).)
